Experimental data from US20180188257A1 (UNIVERSITY OF ROCHESTER, published 2018).

Assays:
[1] = molecular target: T1, β-tubulin (UniProt P07437 1-444); experiment: co-immunoprecipitation from cell lysate with septin-2 pull-down antibody, western blot
T1 construct: Endogenous protein in cell lysates; also called B-tubulin
Protocol: (§1) For immunoprecipitation studies, two million SKOV3 WT and OVCAR-8 cells were seeded onto 100 mm dishes (Corning) and cultured to 80% confluency in complete DMEM media. Cells were rinsed in DPBS (Gibco), lysed, and quantified using Bradford assay. Lysates were adjusted to 1 μg/μl total protein concentration, with 500 μl lysate used for each IP reaction. Identical samples were prepared for pull-down antibody (Septin-2 or HE4) and isotype-matched IgG control (#3900, Cell Signaling), with antibody concentration identical at 40 ng/μl. Further processing and PAGE analysis of samples was conducted to resolve the bands. The resulting membranes were probed for HE4 or Septin-2, p21 or P53, B-tubulin and other proteins of interest.

[2] = molecular target: T2, p53 (UniProt P04637 1-393, limits assumed); experiment: as above
T2 construct: Endogenous protein in cell lysates
Protocol: as §1

T2 sequence (P04637 whole entry): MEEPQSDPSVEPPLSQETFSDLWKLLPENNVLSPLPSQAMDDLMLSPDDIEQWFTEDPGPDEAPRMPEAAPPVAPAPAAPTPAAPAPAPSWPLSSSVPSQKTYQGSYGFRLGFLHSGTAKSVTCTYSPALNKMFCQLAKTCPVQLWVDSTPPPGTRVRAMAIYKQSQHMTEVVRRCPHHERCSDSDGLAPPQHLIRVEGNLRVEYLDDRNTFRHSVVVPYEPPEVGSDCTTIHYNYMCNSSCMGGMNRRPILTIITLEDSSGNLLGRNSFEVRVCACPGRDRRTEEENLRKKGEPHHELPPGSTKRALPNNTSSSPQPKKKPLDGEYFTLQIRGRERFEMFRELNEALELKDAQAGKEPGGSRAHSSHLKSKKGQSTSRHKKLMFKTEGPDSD
T1 sequence (P07437 whole entry): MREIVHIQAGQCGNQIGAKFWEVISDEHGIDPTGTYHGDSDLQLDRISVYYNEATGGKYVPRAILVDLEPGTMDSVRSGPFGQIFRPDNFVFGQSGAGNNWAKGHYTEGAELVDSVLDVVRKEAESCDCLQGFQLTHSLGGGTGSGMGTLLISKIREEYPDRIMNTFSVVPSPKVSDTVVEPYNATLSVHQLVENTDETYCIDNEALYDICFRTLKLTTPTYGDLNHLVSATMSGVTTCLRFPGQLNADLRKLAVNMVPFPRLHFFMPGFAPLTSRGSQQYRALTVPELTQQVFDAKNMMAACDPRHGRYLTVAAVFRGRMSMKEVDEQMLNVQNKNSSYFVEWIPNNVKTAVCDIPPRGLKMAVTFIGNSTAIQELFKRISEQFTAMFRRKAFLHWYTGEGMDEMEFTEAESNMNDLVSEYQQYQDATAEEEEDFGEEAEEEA

binding result [1]: no binding
binding result [2]: no binding
B1: septin-2 (other)
chain: MSKQQPTQFINPETPGYVGFANLPNQVHRKSVKKGFEFTLMVVGESGLGKSTLINSLFLTDLYPERVIPGAAEKIERTVQIEASTVEIEERGVKLRLTVVDTPGYGDAINCRDCFKTIISYIDEQFERYLHDESGLNRRHIIDNRVHCCFYFISPFGHGLKPLDVAFMKAIHNKVNIVPVIAKADTLTLKERERLKKRILDEIEEHNIKIYHLPDAESDEDEDFKEQTRLLKASIPFSVVGSNQLIEAKGKKVRGRLYPWGVVEVENPEHNDFLKLRTMLITHMQDLQEVTQDLHYENFRSERLKRGGRKVENEDMNKDQILLEKEAELRRMQEMIARMQAQMQMQMQGGDGDGGALGHHV
notes: Endogenous protein in lysates of the ovarian cancer cell lines SKOV3 WT and OVCAR-8, pulled down with a septin-2 antibody
